Data as given in PMC4593227, “Biochemical effects of mutations in the gene encoding the alpha subunit of eukaryotic initiation factor (eIF) 2B associated with Vanishing White Matter disease” (BMC Medical Genetics, 2015).
Numbering of substitutions follows the chain as printed. Each block holds one binder with its values, some of them ahead of it.

What was measured:
[1] = target: T1, His6-myc-tagged Val183Phe eIF2Bα (human, UniProt Q14232 1-305, Val183Phe); experiment: cell-based or functional assay
T1 sequence: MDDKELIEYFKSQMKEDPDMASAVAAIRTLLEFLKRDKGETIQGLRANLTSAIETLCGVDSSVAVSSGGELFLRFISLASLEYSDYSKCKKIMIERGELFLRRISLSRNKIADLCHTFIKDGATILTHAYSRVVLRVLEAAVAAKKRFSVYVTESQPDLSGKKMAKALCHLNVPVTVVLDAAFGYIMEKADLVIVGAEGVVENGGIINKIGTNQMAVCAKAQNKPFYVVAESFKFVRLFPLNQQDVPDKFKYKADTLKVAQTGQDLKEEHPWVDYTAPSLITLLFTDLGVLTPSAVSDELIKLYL

[2] = target: T1, His6-myc-tagged Val183Phe eIF2Bα; experiment: pull-down; His6-myc-eIF2Bα (WT or mutant) co-expressed with myc-tagged eIF2B subunits in HEK293; ~200 μg lysate on Ni2+-NTA agarose, 1 h at 4 °C, lysis buffer (20 mM Hepes-KOH pH 7.6, 50 mM KCl, 0.5 % Triton X-100) with 20 mM imidazole; bound material blotted for myc tag, total and phospho-eIF2α; conditions: partners not purified
[3] = target: T2, His6-myc-tagged Tyr275Cys eIF2Bα (human, UniProt Q14232 1-305, Tyr275Cys); experiment: as above; conditions: partners not purified
T2 construct: eIF2Bα encoded by EIF2B1 with the VWM patient mutation Tyr275Cys; residue numbers start with the first methionine of GenBank AAI03764; also called p.Tyr275Cys; source: HEK293, transfected (calcium phosphate), in lysate
T2 sequence: T1 sequence with F183V, Y275C

- decrease in eIF2B GEF activity of complexes containing Val183Phe eIF2Bα, relative to WT (100 %) [1]: ~30%
- reduction in binding relative to WT [2]: ~50%
- reduction in binding relative to WT [3]: ~50%
B1: myc-tagged eIF2Bβ (natural protein, UniProt P49770 1-351, looked up)
chain: MPGSAAKGSELSERIESFVETLKRGGGPRSSEEMARETLGLLRQIITDHRWSNAGELMELIRREGRRMTAAQPSETTVGNMVRRVLKIIREEYGRLHGRSDESDQQESLHKLLTSGGLNEDFSFHYAQLQSNIIEAINELLVELEGTMENIAAQALEHIHSNEVIMTIGFSRTVEAFLKEAARKRKFHVIVAECAPFCQGHEMAVNLSKAGIETTVMTDAAIFAVMSRVNKVIIGTKTILANGALRAVTGTHTLALAAKHHSTPLIVCAPMFKLSPQFPNEEDSFHKFVAPEEVLPFTEGDILEKVSVHCPVFDYVPPELITLFISNIGGNAPSYIYRLMSELYHPDDHVL
notes: eIF2Bβ, beta subunit of eukaryotic initiation factor 2B; one of 'the other subunits of the eIF2B complex'; source: HEK293, transfected (calcium phosphate), in lysate

- decrease in eIF2B GEF activity of complexes containing Val183Phe eIF2Bα, relative to WT (100 %) [1]: ~30%
- reduction in binding relative to WT [2]: ~50%
- reduction in binding relative to WT [3]: ~50%
B2: myc-tagged eIF2Bγ (natural protein, UniProt Q9NR50 1-452, looked up)
chain: MEFQAVVMAVGGGSRMTDLTSSIPKPLLPVGNKPLIWYPLNLLERVGFEEVIVVTTRDVQKALCAEFKMKMKPDIVCIPDDADMGTADSLRYIYPKLKTDVLVLSCDLITDVALHEVVDLFRAYDASLAMLMRKGQDSIEPVPGQKGKKKAVEQRDFIGVDSTGKRLLFMANEADLDEELVIKGSILQKHPRIRFHTGLVDAHLYCLKKYIVDFLMENGSITSIRSELIPYLVRKQFSSASSQQGQEEKEEDLKKKELKSLDIYSFIKEANTLNLAPYDACWNACRGDRWEDLSRSQVRCYVHIMKEGLCSRVSTLGLYMEANRQVPKLLSALCPEEPPVHSSAQIVSKHLVGVDSLIGPETQIGEKSSIKRSVIGSSCLIKDRVTITNCLLMNSVTVEEGSNIQGSVICNNAVIEKGADIKDCLIGSGQRIEAKAKRVNEVIVGNDQLMEI
notes: eIF2Bγ, gamma subunit of eukaryotic initiation factor 2B; one of 'the other subunits of the eIF2B complex'; source: HEK293, transfected (calcium phosphate), in lysate
